Data: US20180344829A1 (INNATE PHARMA, published 2018)
Substitutions are numbered along the chain they refer to.

T1: human Siglec-10 expressed on CHO cells (human, UniProt Q96LC7 17-697)
T1 construct: NCBI NP_149121 is printed; also called huSiglec-10; Siglec-10 CHO transfectants
T1 sequence: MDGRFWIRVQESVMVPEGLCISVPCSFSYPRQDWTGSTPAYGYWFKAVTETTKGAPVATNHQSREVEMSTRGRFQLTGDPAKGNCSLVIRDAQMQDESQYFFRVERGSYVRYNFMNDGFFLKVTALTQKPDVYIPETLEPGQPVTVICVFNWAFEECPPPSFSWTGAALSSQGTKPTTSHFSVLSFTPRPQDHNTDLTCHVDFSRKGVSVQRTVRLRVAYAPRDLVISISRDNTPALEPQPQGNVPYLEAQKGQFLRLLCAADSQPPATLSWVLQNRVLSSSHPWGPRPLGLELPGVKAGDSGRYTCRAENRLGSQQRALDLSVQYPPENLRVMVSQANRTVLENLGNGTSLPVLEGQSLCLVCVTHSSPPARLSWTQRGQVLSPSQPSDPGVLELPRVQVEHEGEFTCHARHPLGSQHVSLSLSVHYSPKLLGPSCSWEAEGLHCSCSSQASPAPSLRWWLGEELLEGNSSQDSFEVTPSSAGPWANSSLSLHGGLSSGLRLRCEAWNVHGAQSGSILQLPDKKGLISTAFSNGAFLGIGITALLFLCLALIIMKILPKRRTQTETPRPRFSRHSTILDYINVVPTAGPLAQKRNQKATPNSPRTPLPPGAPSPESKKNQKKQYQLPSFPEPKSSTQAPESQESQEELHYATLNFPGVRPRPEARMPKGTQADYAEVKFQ

B1: antibody S10-A (antibody, human IgG1, V domains shown)
VH: QIQLQQSGAELEKPGASVKMSCKASGYTFTSYWMHWVKQRPGQGLEWIGYINPDTDSTEYNQKFRDKATLTADKSSSTAYMQLSSLTSEDSAVYYCARPYYRYAGYAMDYWGQGTSVTVSS
VL: DIKMTQSPSSMYASLGERVTITCKASQDINSYLSWFQQKPGKSPKTLIYRANRLVDGVPSRFSGSGSGQVYSLTISSLEYEDLGIYYCLQYDEFPWTFGGGTKLEIKR
notes: also called CHS2-S10-A
B2: antibody S10-B (antibody, human IgG1, V domains shown)
VH: QVQLKESGPGLVAPSQSLSITCTVSGFSLTDYDVNWVRQPPGKGLEWLGMIWGDGITDYNSALKSRLSISKDNSKSQVFLEMNSLQTDDTARYYCARGGIYYFGNTYGYWFFDVWGAGTTVTVSS
VL: DIVMTQSPSSLAVSTGEKVTMSCKSSQSLLNSRTRKNYLAWYQQKPGQSPKLLIYWASTRESGVPDRFTGSGSGTDFTLTISSVQAEDLAVYYCKQSYNLRTFGGGTKLEIKR
notes: also called CHS2-S10-B
B3: antibody S10-C (antibody, human IgG1, V domains shown)
VH: B2 VH
VL: B2 VL with D1E, V3L, M4L
notes: also called CHS2-S10-C

What was measured:
[1] = biological target: T2, human Siglec-7 expressed on CHO cells (human, UniProt Q9Y286 19-467); experiment: flow cytometry on CHO transfectants
T2 construct: NCBI NP_055200.1 is printed; also called Siglec-7 CHO transfectants
Procedure: (§1) Cells expressing Siglec-3, -5, -6, -7, -8, -9, -11 and -12 were generated using the amino acid sequences and Genbank references for Siglec polypeptides shown below in Table 2. Anti-Siglec-10 antibodies are tested by flow cytometry for binding to the cells. Binding of antibodies on human Siglec-10 was tested by flow cytometry on CHO cells transfected with human Siglec-10, human Siglec-7 or human Siglec-11. Cells were incubated 1h in Staining Buffer (SB) with primary antibodies at 8 ug/ml, then were washed three times with SB. Secondary Goat F(ab′)2 Anti-Human IgG (Fc) PE (Beckman Coulter) was incubated for 30 min at 4° C., cells were washed twice with SB. […] The 6 antibodies bound human Siglec-10 CHO transfectants with high differential in binding affinity over the control Siglec-7 or Siglec-11 CHO transfectants (no or only low residual binding to Siglec-7 or Siglec-11). […] The EC₅₀ as determined by flow cytometry for binding for S10-A antibody to Siglec-10 expressing CHO cells was 0.1 μg/ml.

[2] = biological target: T1, human Siglec-10 expressed on CHO cells; experiment: flow cytometry on Siglec-10 expressing CHO cells
[3] = biological target: T1, human Siglec-10 expressed on CHO cells; experiment: flow cytometry on CHO transfectants, antibodies at 8 ug/ml
Procedure: as §1

T2 sequence (Q9Y286 19-467): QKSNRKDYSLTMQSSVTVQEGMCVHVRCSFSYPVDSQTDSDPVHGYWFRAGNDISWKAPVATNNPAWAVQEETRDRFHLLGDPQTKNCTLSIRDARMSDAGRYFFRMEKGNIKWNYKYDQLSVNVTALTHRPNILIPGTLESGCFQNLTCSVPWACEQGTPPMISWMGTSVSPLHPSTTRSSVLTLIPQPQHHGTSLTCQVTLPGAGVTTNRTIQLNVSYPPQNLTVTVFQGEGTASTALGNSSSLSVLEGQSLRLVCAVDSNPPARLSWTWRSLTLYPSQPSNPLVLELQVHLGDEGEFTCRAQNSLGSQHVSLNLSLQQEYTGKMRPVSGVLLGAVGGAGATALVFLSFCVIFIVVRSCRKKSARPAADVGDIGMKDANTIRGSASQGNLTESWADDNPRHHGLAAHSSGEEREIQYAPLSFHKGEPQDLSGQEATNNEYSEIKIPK

Binder | binding result [1] | EC50 [2] | binding result [3]
B1 | no binding (tested: 8 ug/ml) | 0.1 µg/mL | –
B2 | no binding (tested: 8 ug/ml) | – | binds
B3 | no binding (tested: 8 ug/ml) | – | binds
